Measured values reported in the nanobody polyreactivity screen of Harvey et al. (2022).

Test: yeast display, Sf9 membrane polyspecificity reagent, FACS + sequencing; frameworks hold sequencing errors
In short: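 Using colony PCR, genes from sorted yeast display clones were amplified, then sequenced on MiSeq at 2 × 250 and filtered by CDR length. The clones had been stained with 10% biotinylated, detergent-solubilized Sf9 membrane reagent for 1 hour at 4 °C and sorted by FACS into low and high (top ~1%) gates on anti-HA and streptavidin fluorescence. Polyreactivity labels come from the gate of origin.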

| Sequence | polyreactivity (PSR sort gate) |
| --- | --- |
| QVQLEESCGGLVQAGGSLRLSCAASGSIFGTYAMGLYRHAPGKEREFVADISGIGTSTYYADSVKGRFTISRDNAKNTVYLQMNSLKPEDTAVYYCAAESFDTVEYDYWGQGTQVTVSS | low polyreactivity |
| QVQLVESGGGLVQAGGSLRLSCAASGSTFHRKAMGWYRQAPGKERELVASISIGGSTNYADSVKGRFTISRDNAKNTVYLQMNSLKPEDTAVYYCATEPNPRRPRVDYDYWGQGTQVTVSS | low polyreactivity |
| QVQHVESGGGLVQAGGSLRLSCAASGRTFVTNAKGWYRQAPGKERELVAAISSSGGSTYYADSVKGRFTISRDNAKNTVYLQMNSLKPEDTAVYYCATDRYVTPRLRFDYWGQGTQVTVSS | low polyreactivity |
| QVQLVESGGRLVQARGSLRLSCAASGRIFYDYAMGCYRQAPGKESELVAAISGSGGSTYYADSVKGRFTISRDNAKNTVYLQMNSLKPEDTAVYYCNRYTTRYYPGGDYWGQGTQVTVSS | high polyreactivity |
| QVQLVESGGGLVQAGGSLRLSCAASGFIFSYYVMGWYRQAPGKERELVASISARVGSTYYADSVKGRFTISRDNAKNTVYLQMNSLKPEDTAVYYCNTARVKYRWYNYWGQGTQVTVSS | high polyreactivity |
| QVQLVESGGGLVQAGGSLRLSCAASGSTINRNAMGWYRQAPGKERELVAGISYGGGSTYADSVKGRFTISRDNAKNTVYLQMNSLKPEDTAVYYCTADFRHGHRHDMNYWGQGTQVTVSS | low polyreactivity |
| QVQLVESGGGLVQAGGSLRLSCASSGFTFDINAMGWYRQAPGKERELVAVITWNDGSTYYADSVKGRFTISRDNAKNTVYLQMNSLKPEDTAVYYCAAEYADSWSAFDWNYYYWGQGTQVTVSS | high polyreactivity |
| QVQLVESGGGLVQAGGSLRLSCAASGRIFYSNAMGWYRQAPGKERELVATISTGGSTYADSVKGRFTISRDNAKNTVYLQMNSLKPEETAVYYCAVDEWRWRVGAVAYYYWGQGTQVTVSS | low polyreactivity |
| QVQLQESGGGLVQAGGTITLGYDMGWYRQAPGKEREFVAGIDTGAITYYADSVKGRFTNSRDNAKNTVYLQMNSLKPEDTAVYYCAAIQTHTYAHSYWGQGTQVTVSS | high polyreactivity |
| QVQLVESGGGLVQAGAILRVSCAASGISLQYAMGCYRQAPGKERELVASISSRGTSTYYADSVKGRFTISRDNAKNTVYLQMNSLKPEDTAVYYCAARVRWWSPGGYWGQGTQVTVSS | high polyreactivity |
| QVQLVESGGGLVQAGGSLRLSCAASGRTFGSNTMGWYRQAPGKERELVAAISGTGTSTYYADSVKGRFTISRDNAKNTVYLQMNSLKQEDTAVYYCAAGWYKYLFQPHDYWGQGTQVTVSS | low polyreactivity |
| QDQLVESAGGLVQAGGSLRLICAASASIFYWNAMGWYRQAPGKERELVAAITSGGSTYYADSVKGRFTISRDNAKNTVYLQMNSMKPEDTAVYYCAARPRGTYSRLGYWGQGTQVTVSS | high polyreactivity |
| QVQLVESGGGLVQAGGSLRLSCAASGSIFFNYAMGWYRQAPGKERELVAAISSNGGRTYYADSVKGRFTISRDNAKNTVYLQMNSLKPEDTAVYYCAARVYDYPRFGYWGQGTQVTVSS | high polyreactivity |
| QVQLVESGGGLVQAGGSLRLICAASGFTFYYKAMGWYRPAHGKERELVAAISTGGSTYYADSVKGRFTISRDNAKNTVYLQMNSLKPEDTAVYYCARSLWTGGYGYYYWGQGTQVTVSS | high polyreactivity |
| QVQLVESGGGLVQAGGSLRLSCAASGIIFYDYAMGWYRQAPGKERELVAAITSNGDNTYYADSVKGRFTISRDNAKNTVYLQMNSLKPEDTAVYYCDVDGSFAADFDNYLEEYGYWGQGTQVTVSS | low polyreactivity |
| QVQLVESGGGLVQAGGSLRLSCAASGSTFDKNDMGWYRQAPGRERELVAAITSSGSSTYYADSVKGRFTISRDNAKNTVYLQMNSLKPADTAVYYCAADKYYYDRLSPSGDYWGQGTQVTVSS | low polyreactivity |
| QVQLVESGGRLVQAGGSLRLSCAASGSTIKSYAMGWYRQAPGKERELVAGITSGDSTNYADSVKGRFTISRDNAKNTVYFQMNSLKPDDTAVYYCNAVTQARYYYWGQGYQVTVSS | low polyreactivity |
| QVQLVESGGGLVQAGGSLRLSCAASGGTFLAYAMGWYRQAPGKERELLATITSGGSTNYADSVKGRFTISRDNAKNTVYVQMNSLKPEDTAVYYCAASGRDFIAESPYDYWGQGTQVTVSS | low polyreactivity |
| QVHLVESGGGLVQAGGSLRLSCAASGSTFQSNAMGWYRQAPGKERELVATITQSGATTYYADSVKGRFTISRDNAKNTVYLQMNSLKPEDTAVYYCNVDTYQKRWFWLDLDGGYWGQGTQVTVSS | low polyreactivity |
| QVQLVESGGGLVQAGGSLRLSCAASGRTFVYYAMGWYRQAPGKEREFVAAISRSGGRTSYADSVKGRFTISRDNAKNTVYLQMNSLKPEDTAVYYCAAEKRTQPTSREYYWGQGTQVTVSS | high polyreactivity |
| QVQLVESGGGLVQAGGSLRLSCAASGSIFSFYAMGWYRQAPGKERELVADISLTTDSTYADSVKGRFTISRDNAKNTVYLQMNSLKPEDTAVYYCAADGSNWEYDYWGQGTQVTVSS | low polyreactivity |
| QVQLVESGGGLVQAGGSLRLSCAASGSTFTEYAMGWYRQAPGKERELVAAITNSGSSTNYEDSVKGRFTISRDNAKNTVYLQMNSLKPEDTAVYYCNASSYPWEYYYLYYGYDYWGQGTQVTVSS | low polyreactivity |

| Sequence | polyreactivity (PSR sort gate) |
| --- | --- |
| QVQLVESGGGLVQAGGSLRLSCAASGFIIKFYAMGWYRPAPGKERELVAAISWRGGSTYYADSVKGRFTISRDIAKNTVYLQMNSLKPEDTAVYYCNKAGKARYWGRYNYWGQGTQVTVSS | high polyreactivity |
| QVQLVESGGGLVQAGGSLRLSCAASGFIFYLYTMGWYRQAPGTEMEVVAAITQSGTRTYYADSVKGRFTISRDNAKNTVYLQMNSLKPVDTAVYYCAAEWGSSYRWGMDYWGQGTQVTVSS | high polyreactivity |
| QVQLVESGGGLVQAGGSLRLSCAASGFIFYYNAMGWYRQAPGKERELVAAITRSGGSTFYADSVKGRFTISRDNAKNTVYLQMNSLKPEDTAVYYCAAKGNPYRVPGSSYPKVNYWGQGTQVTVSS | high polyreactivity |
| QVQLVESGGGLVQAGGSLRLSCAASGRIFFPYDMGWYRQAPGKERELVAAITNSGGRTYYADSVKGRFTISRDNAKNTVYLQMNSLKPEDTAVYYCNADAYEFRWVKHYDYWGQGTQVTVSS | low polyreactivity |
| QGQLVESGGGLVQEGGILHLTCAASGRIFCYYDMGWSRQEPGKERELVAAISRSGGSTYYADSVKGRFTISRDNAKNTVYLQMNSLKPEDTAVYYCAAEYYGFSWAGYYYWGQGTQVTVSS | high polyreactivity |
| QVQHVESGGGLVQAGGRLRLSCAASGSIFGSNAMGWYRQEPGKERELVAVISRRGGSTYYADSVKGRFTISRDNAKNTVYLQMNSLKPEDTAVYYCADRVWYPRYDYWGQGTQVTVSS | high polyreactivity |
| QVQLVESGGGLVQAGGSLRLSCAASGITFEIYVMGWYRQAPGKERELVAAITSDDTTYADSVKGRFTISRDNAKNTVYLQMNSLKPEDTAVYYCAADYYGVGVGPYSPADEYDYWGQGTQVTVSS | low polyreactivity |
| QVQLVESGGGLVQAGGSLRLSCAASGITFDSYAMGWYRQAPGKERELVAAISYSGGSTYYADSVKGRFTISRDNAKNTVYLQMNSLKPEDTAVYYCAAASDDDYDYWGQGTQVTVSS | low polyreactivity |
| QGQLVETGGGLVQAGGSLRLSCAASGSTFSYYAMGWYRQAPGKEREWVAAISRRGGSTYYADSVKGRFTISRDNAKNTVYLQMISLKPEDTAVNYCAADDYYSSRIEYYNWGQGTQVTVSS | high polyreactivity |
| QVQLVESGGGLVQAGGSLRLSCAASGSTFSSYAMGWYRQAPGKEREFVAAINTDGGSTYYADSVKGRFTISRDNAKNTVYLQMNSLKPEDTAVYYCAARYYWPWYSSYDYWGQGTQVTVSS | low polyreactivity |
| QVQLVESGGGLVQAGGSLRLSCAASGITFYGYAMGWYRPAPGKERELVARITISGRTNYADYVKGRFTISRDNAKNTVYLQMNSLKPEDTAVYYCATLVHWSYPYYYWGQGTQVTVSS | high polyreactivity |
| QVQLVESGGGLVQAGGSLRLSCAASGTFAFYTMGWYRQAPGKERELVAAISWDGGDTYYADSVKGRFTISRDNAKNTVYLQMNSLKPEDTAVYYCAADYSNSGYGYWGQGTQVTVSS | low polyreactivity |
| QVQLVESGGGLVQAGGSLRLSCAASGRIFNYYAMGWYRQAPGKERELVAAINSGGSTYADSVKGRFTISRDNAKNTVYLQMNSLKPEDTAVYYCAKDGQLQSGRERPSGYDHWGQGTQVTVSS | low polyreactivity |
| QDQLVESGGGLVQAGGSLRLSCAASGSIFGVYAMGWYRQAPGKEGELVAAISWTDGTTYYADSVKGRFTISRDNAKNTVYLQMNSLKQEDTAVYYCAVTYPRVAKVMYYWGQGTQVNVSS | high polyreactivity |
| QVQLVESGGGLVQAGGSLRLSCAACGSTFDVNARGWYRQAPGKERELVAAISWSDDDTYYADSVKGRFTISRDNAKNTDYLQKHSLKPEDTAVYYCAADGRYGWYYGVYNGEDYWGQGTQVTVSS | high polyreactivity |
| QVQLVESGGGLVQAGGSLRLSCAASGRSFGTYAMGWYRQAPGKERELVAAISRSGGRTYYADSVKGRFTISRDNAKNTVYLQMNSLKPEDTAVYYCAAATGSVPPYDYWGQGTQVTVSS | high polyreactivity |
| QVQIVESGGGLVQAGGSLRLSCAASGSSFTLYALGWYRQAPGKERELVAAISWSTTSTYYADSVKGRFTISRDNAKNTVYLQMNSLKPEDTAVYYCNARHWPLAYEYWGQGTQVTVSS | high polyreactivity |
| QVQLVESGGGLVQAGGSLRLSCAASGLTFDKIAMGWYRQAPGKERELVAAISTSGGGTYYADSVKGRFTISRDNPKTTVYLQRNSLKPEDTAVYYCAAKHYYYSPYVRYDPPPGYYWGQGTQVTVSS | high polyreactivity |
| QVQLVESGGGLVQAGGSLSFSCAASGSIFDYNAMGWYRQAPGKERELVADIRGIGGSTYYADSVKGRFTISRDNAKNTFYLQMNSLIPEDTAVYYCNTSTLGGYYWGQGTQVTVSS | low polyreactivity |
| QVQLVESGGGLVQAGGSLRLSCAASGSIFQPNAMGWYRQAPGKERELVASIRGRGGDTYYADSVKGRFTISRDTAKNTVYLQMNSLKPEDTAVYYCAADYRWGQGTQVTVSS | low polyreactivity |
| QVELVESGGGLVQAGGSLRLSCAASGYTFRFNAMGWYRQAPGKEREFVAAIDFGGAGTYYADSVKGRFTISRDNAKNTVYLQMNSLKPEDTAVYYCNARDGVTTEFDYWGQGTQVTVSS | low polyreactivity |
